Reference: the supplement of paper PMC9112550, “Optimization of the antimicrobial peptide Bac7 by deep mutational scanning” (BMC Biology, 2022)

System: Escherichia coli TOP10
Assay: shrunken log2 fold change of peptide-encoding DNA abundance (4.5 h post-induction vs induction); higher = less antimicrobial activity (less host growth inhibition)
Conditions: time post-induction: 4.5 h; library: site-saturation at positions 5, 18, 19, 20
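Further: peptides expressed intracellularly from a pBAD plasmid library in pooled LB shake-flask culture, induced with 0.3% L-arabinose, DNA abundance read by NGS, three biological replicates, DESeq2 with apeglm shrinkage.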

Row | Sequence | shrunken log2 fold change
1 | RRIRIRPPRLPRPRPRPVHPPRP | -0.0793
2 | RRIRIRPPRLPRPRPRPVHWPRP | 0.0203
3 | RRIRIRPPRLPRPRPRPVKKPRP | -0.0235
4 | RRIRIRPPRLPRPRPRPVLCPRP | -0.0142
5 | RRIRIRPPRLPRPRPRPVLTPRP | -0.0413
6 | RRIRIRPPRLPRPRPRPVMPPRP | -0.142
7 | RRIRIRPPRLPRPRPRPVNQPRP | 0.0745
8 | RRIRIRPPRLPRPRPRPVRTPRP | -0.0633
9 | RRIRIRPPRLPRPRPRPVSAPRP | 0.0887
10 | RRIRIRPPRLPRPRPRPVSDPRP | -0.619
11 | RRIRIRPPRLPRPRPRPVSEPRP | -0.164
12 | RRIRIRPPRLPRPRPRPVTAPRP | -0.299
13 | RRIRIRPPRLPRPRPRPVTLPRP | -0.093
14 | RRIRIRPPRLPRPRPRPVTTPRP | -0.0229
15 | RRIRIRPPRLPRPRPRPVTWPRP | -0.372
16 | RRIRIRPPRLPRPRPRPVVAPRP | -0.0606
17 | RRIRIRPPRLPRPRPRPVVGPRP | 0.0233
18 | RRIRIRPPRLPRPRPRPVVIPRP | -0.307
19 | RRIRIRPPRLPRPRPRPVWCPRP | 0.148
20 | RRIRIRPPRLPRPRPRPVWTPRP | -0.273
21 | RRIRIRPPRLPRPRPRPWALPRP | -0.0173
22 | RRIRIRPPRLPRPRPRPWATPRP | 0.16
23 | RRIRIRPPRLPRPRPRPWCLPRP | -1.11
24 | RRIRIRPPRLPRPRPRPWCYPRP | -0.406
25 | RRIRIRPPRLPRPRPRPWDNPRP | -0.339

Row | Sequence | shrunken log2 fold change
26 | RRIRIRPPRLPRPRPRPWEVPRP | -0.00884
27 | RRIRIRPPRLPRPRPRPWFDPRP | -0.184
28 | RRIRIRPPRLPRPRPRPWGSPRP | -0.488
29 | RRIRIRPPRLPRPRPRPWHPPRP | -0.383
30 | RRIRIRPPRLPRPRPRPWHQPRP | -0.00186
31 | RRIRIRPPRLPRPRPRPWIIPRP | -0.207
32 | RRIRIRPPRLPRPRPRPWMQPRP | -0.182
33 | RRIRIRPPRLPRPRPRPWNDPRP | -0.216
34 | RRIRIRPPRLPRPRPRPWNVPRP | -0.00149
35 | RRIRIRPPRLPRPRPRPWPKPRP | -0.122
36 | RRIRIRPPRLPRPRPRPWPNPRP | -0.0754
37 | RRIRIRPPRLPRPRPRPWQKPRP | 0.0223
38 | RRIRIRPPRLPRPRPRPWSWPRP | -0.0152
39 | RRIRIRPPRLPRPRPRPWTAPRP | -0.307
40 | RRIRIRPPRLPRPRPRPWTFPRP | 0.0921
41 | RRIRIRPPRLPRPRPRPWYEPRP | -0.0153
42 | RRIRIRPPRLPRPRPRPWYFPRP | -0.19
43 | RRIRIRPPRLPRPRPRPWYIPRP | -0.0639
44 | RRIRIRPPRLPRPRPRPYDGPRP | -0.0104
45 | RRIRIRPPRLPRPRPRPYDNPRP | 0.0332
46 | RRIRIRPPRLPRPRPRPYDWPRP | -0.593
47 | RRIRIRPPRLPRPRPRPYFLPRP | -0.921
48 | RRIRIRPPRLPRPRPRPYFQPRP | -0.511
49 | RRIRIRPPRLPRPRPRPYGAPRP | -0.199
50 | RRIRIRPPRLPRPRPRPYIEPRP | -0.266

Row | Sequence | shrunken log2 fold change
51 | RRIRIRPPRLPRPRPRPYITPRP | -1.34
52 | RRIRIRPPRLPRPRPRPYKMPRP | -0.889
53 | RRIRIRPPRLPRPRPRPYLHPRP | -1.61
54 | RRIRIRPPRLPRPRPRPYNDPRP | -0.313
55 | RRIRIRPPRLPRPRPRPYQFPRP | -0.141
56 | RRIRIRPPRLPRPRPRPYRAPRP | -0.77
57 | RRIRIRPPRLPRPRPRPYRMPRP | -1.26
58 | RRIRIRPPRLPRPRPRPYSIPRP | -0.129
59 | RRIRIRPPRLPRPRPRPYTEPRP | -0.512
60 | RRIRIRPPRLPRPRPRPYVRPRP | -0.199
61 | RRIRIRPPRLPRPRPRPYWEPRP | -0.152
62 | RRIRIRPPRLPRPRPRPYWHPRP | -0.718
63 | RRIRIRPPRLPRPRPRPYYEPRP | -1.06
64 | RRIRKRPPRLPRPRPRPAAQPRP | 0.814
65 | RRIRKRPPRLPRPRPRPACSPRP | 0.341
66 | RRIRKRPPRLPRPRPRPADDPRP | 0.799
67 | RRIRKRPPRLPRPRPRPAEMPRP | -0.00753
68 | RRIRKRPPRLPRPRPRPAESPRP | 0.563
69 | RRIRKRPPRLPRPRPRPAFRPRP | 0.576
70 | RRIRKRPPRLPRPRPRPAITPRP | 0.613
71 | RRIRKRPPRLPRPRPRPAIVPRP | 0.0885
72 | RRIRKRPPRLPRPRPRPAKPPRP | 0.464
73 | RRIRKRPPRLPRPRPRPAKTPRP | 0.0104
74 | RRIRKRPPRLPRPRPRPALPPRP | 0.936
75 | RRIRKRPPRLPRPRPRPANNPRP | 0.0823

Row | Sequence | shrunken log2 fold change
76 | RRIRKRPPRLPRPRPRPAQDPRP | 0.679
77 | RRIRKRPPRLPRPRPRPAQEPRP | 0.371
78 | RRIRKRPPRLPRPRPRPAQVPRP | 0.296
79 | RRIRKRPPRLPRPRPRPAQWPRP | 0.421
80 | RRIRKRPPRLPRPRPRPARPPRP | 0.575
81 | RRIRKRPPRLPRPRPRPATKPRP | 0.253
82 | RRIRKRPPRLPRPRPRPATWPRP | 0.573
83 | RRIRKRPPRLPRPRPRPAWNPRP | 1
84 | RRIRKRPPRLPRPRPRPAYFPRP | -0.0128
85 | RRIRKRPPRLPRPRPRPAYIPRP | 0.0173
86 | RRIRKRPPRLPRPRPRPCAIPRP | 0.101
87 | RRIRKRPPRLPRPRPRPCAMPRP | 0.367
88 | RRIRKRPPRLPRPRPRPCATPRP | 0.242
89 | RRIRKRPPRLPRPRPRPCCCPRP | 0.415
90 | RRIRKRPPRLPRPRPRPCCSPRP | -0.189
91 | RRIRKRPPRLPRPRPRPCDFPRP | -0.231
92 | RRIRKRPPRLPRPRPRPCDLPRP | 0.209
93 | RRIRKRPPRLPRPRPRPCESPRP | -0.0138
94 | RRIRKRPPRLPRPRPRPCEYPRP | 0.0394
95 | RRIRKRPPRLPRPRPRPCFCPRP | 0.0588
96 | RRIRKRPPRLPRPRPRPCGHPRP | 0.0693
97 | RRIRKRPPRLPRPRPRPCGIPRP | 0.0772
98 | RRIRKRPPRLPRPRPRPCIDPRP | -0.0418
99 | RRIRKRPPRLPRPRPRPCIRPRP | -0.049
100 | RRIRKRPPRLPRPRPRPCKNPRP | -0.0355

Row | Sequence | shrunken log2 fold change
101 | RRIRKRPPRLPRPRPRPCLMPRP | -0.0503
102 | RRIRKRPPRLPRPRPRPCLQPRP | 0.194
103 | RRIRKRPPRLPRPRPRPCLSPRP | -0.161
104 | RRIRKRPPRLPRPRPRPCMDPRP | -0.122
105 | RRIRKRPPRLPRPRPRPCMNPRP | -0.279
106 | RRIRKRPPRLPRPRPRPCNKPRP | 0.0197
107 | RRIRKRPPRLPRPRPRPCRKPRP | 0.0153
108 | RRIRKRPPRLPRPRPRPCSDPRP | -0.0361
109 | RRIRKRPPRLPRPRPRPCSEPRP | 0.296
110 | RRIRKRPPRLPRPRPRPCSQPRP | 0.0126
111 | RRIRKRPPRLPRPRPRPCVPPRP | -0.14
112 | RRIRKRPPRLPRPRPRPCWHPRP | 0.00832
113 | RRIRKRPPRLPRPRPRPCWLPRP | 0.246
114 | RRIRKRPPRLPRPRPRPCYCPRP | -0.0227
115 | RRIRKRPPRLPRPRPRPCYVPRP | -0.69
116 | RRIRKRPPRLPRPRPRPDAHPRP | 0.534
117 | RRIRKRPPRLPRPRPRPDASPRP | 0.187
118 | RRIRKRPPRLPRPRPRPDCAPRP | 1.1
119 | RRIRKRPPRLPRPRPRPDDDPRP | 3.89
120 | RRIRKRPPRLPRPRPRPDDWPRP | 1.73
121 | RRIRKRPPRLPRPRPRPDETPRP | 3.04
122 | RRIRKRPPRLPRPRPRPDEWPRP | 0.268
123 | RRIRKRPPRLPRPRPRPDFCPRP | 0.129
124 | RRIRKRPPRLPRPRPRPDFIPRP | -0.209
125 | RRIRKRPPRLPRPRPRPDGHPRP | -0.0242

Row | Sequence | shrunken log2 fold change
126 | RRIRKRPPRLPRPRPRPDGIPRP | 0.00242
127 | RRIRKRPPRLPRPRPRPDHRPRP | 0.139
128 | RRIRKRPPRLPRPRPRPDISPRP | -0.0841
129 | RRIRKRPPRLPRPRPRPDKIPRP | 0.0555
130 | RRIRKRPPRLPRPRPRPDLQPRP | 0.0789
131 | RRIRKRPPRLPRPRPRPDMKPRP | -0.0241
132 | RRIRKRPPRLPRPRPRPDNQPRP | -0.233
133 | RRIRKRPPRLPRPRPRPDPAPRP | 0.688
134 | RRIRKRPPRLPRPRPRPDPFPRP | -0.0704
135 | RRIRKRPPRLPRPRPRPDPSPRP | -0.0338
136 | RRIRKRPPRLPRPRPRPDQKPRP | 0.401
137 | RRIRKRPPRLPRPRPRPDRDPRP | 0.00592
138 | RRIRKRPPRLPRPRPRPDRLPRP | -0.038
139 | RRIRKRPPRLPRPRPRPDRSPRP | -0.231
140 | RRIRKRPPRLPRPRPRPDVEPRP | 0.962
141 | RRIRKRPPRLPRPRPRPDVPPRP | 0.501
142 | RRIRKRPPRLPRPRPRPDWDPRP | -0.193
143 | RRIRKRPPRLPRPRPRPDWHPRP | 0.0739
144 | RRIRKRPPRLPRPRPRPDYAPRP | 0.102
145 | RRIRKRPPRLPRPRPRPDYGPRP | 0.111
146 | RRIRKRPPRLPRPRPRPEADPRP | 0.00157
147 | RRIRKRPPRLPRPRPRPEAPPRP | 0.957
148 | RRIRKRPPRLPRPRPRPECFPRP | 0.7
149 | RRIRKRPPRLPRPRPRPECGPRP | 1.01
150 | RRIRKRPPRLPRPRPRPECHPRP | -0.0136
